B1: CTBA4T (structured_DNA)
DNA: ATCTCGACTAGTCATAGGGGGCGCGAACATACGCGGTTGGTGTGGTTGGCTGACAATACTCGT
modifications: circular (5'-3' ligated)
B2: CTBA4T-B1 (structured_DNA)
DNA: ATCTCGAGTCATAGGGGGCGCGAACATACGCGGTTGGTGTGGTTGGCTGACTCGT
modifications: circular (5'-3' ligated)
B3: CTBA4T (structured_DNA)
DNA: ATCTCGACTAGTCATAGGGGGCGCGAACATACGCGGTTGGTGTGGTTGGCTGACAATACTCGT
modifications: circular (3'-5' ligated)

Assays:
human alpha-thrombin [1] = target: T1, human alpha-thrombin (Homo sapiens, UniProt P00734;P00734 328-363;364-622); assay: EMSA; EMSA: 1x binding buffer (PBSMT pH 7.2: 137 mM NaCl, 2.68 mM KCl, 8.1 mM Na2HPO4, 1.76 mM KH2PO4, 1 mM MgCl2, 0.025% Tween-20), <50 pM 32P-DNA, 30 min; gel 10% n
human alpha-thrombin [2] = target: T1, human alpha-thrombin; assay: competition; displaces 32P-CTBA4T (500 pM, thrombin 50 pM) at high concentration; exosite I; EMSA: 1x binding buffer (PBSMT pH 7.2: 137 mM NaCl, 2.68 mM KCl, 8.1 mM Na2HPO4, 1.76 mM KH2PO4, 1 mM MgCl2, 0.025% Tween-20), <50 pM 32P-DNA, 30 min; gel 10% n
[3] = target: alpha-thrombin (light; heavy chain) (Homo sapiens (Human), UniProt P00734;P00734 328-363;364-622, N-glycosylated (plasma); interchain disulfide); assay: EMSA; PBS pH 7.2, 1 mM MgCl2, 0.025% Tween-20; DNA <50 pM; conditions: copies: 1;1; label: 32P

Binder	Kd (human alpha-thrombin [1]) [nM]	further results
B1	0.023	–
B2	0.019	–
GGTTGGTGTGGTTGG (structured_DNA) [TBA15]	–	binding result (human alpha-thrombin [2]): binds
B3	–	Kd [3]: 0.023 nM

Reference: publication PMC7641760, “Evolution of a highly functional circular DNA aptamer in serum”
